From the supplement of paper PMC9942255 come the findings set out here.

“And” between values parts separate entries of the source, which are not always exact repeats. Identical values can stand only once.

The test system of the data set is Bacillus subtilis DB104 (SP-AmyQ fusion secretion). The data set is described as follows: AmyQ secretion efficiency, weighted average sort bin (1 = best secretion, 10 = worst) (bin number (weighted average, 1-10)); higher = lower secretion efficiency. The method, boiled down:
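In this assay, the secretion score is defined as the average bin number weighted by read frequency, normalised to beads per bin, with low-abundance sequences not counted. B. subtilis DB104 cells expressing mature AmyQ behind designed signal peptides (amyE-integrated) were enclosed with fluorescein-starch in ~65 nL alginate beads at about 0.3 cells per bead. Beads grew about 13 h at room temperature, were stained with nile red, and occupied beads went into 10 equally populated green/red fluorescence ratio bins by large-particle flow cytometry, whose amplicons were Illumina-sequenced.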

For the sequence MPYLKRLSIVLLLLVTGLFMSLFAVTATASAQTG, the AmyQ secretion efficiency came to 1.6.
Next, MKRFSTAYLLLGILCSAAVFLILSAGAPSRALGAEV: 3; MKLSVKIAGVLTVAAAAMDDEDDEATAKGN: 7.46; MKKWMAGLFLAAAVLLCLLVTSLMVPQQIQGASS: 4.31.
Sequence MKRIRIPMTLALGAALTIAPLSFASREEN had an AmyQ secretion efficiency of 6.16.
On to MLCVMMLLFSAIASFPVSAQLKDQ, for which the AmyQ secretion efficiency is 6.33.
MMIGQCVICLSLLVFGTTAAHAEET: the AmyQ secretion efficiency came out at 4.07.
MKKVLMAFIICLSLILSVLAAPPSGAKMESV came in with an AmyQ secretion efficiency of 4.39.
Regarding MKKRLIAPMLLSAASLAFFAMVAVIAQAAAY, the AmyQ secretion efficiency is 5.95.
With MTKKAWFLPLVCVLLISGWLAPAASASMQTT the figure was 2.07.
On to MKKLTLAFLVFLSVVLVTTVFLVKQQESVAQAKQL, for which the AmyQ secretion efficiency is 3.11.
MKKWMITIAMLILAGIALFVFIRKKRRLKSHKT gave an AmyQ secretion efficiency of 6.07.
Next, MRKKRVITCVMAASLTLGSLLPAGYMSAKED: 2.67.
With MLTKRLLLTIYIMLLGLIAWFPGAAQAEEK the figure was 2.22.
With MKKRLIAPMLLSAASLAFFARRKRKKAQAAAY the figure was 7.44.
MKKELLASLVLCLSLDDDDETNEVFAATT came in with an AmyQ secretion efficiency of 5.98.
In turn, MGMKKKLSLGVASAALGLALVGGGTWGAFN yielded an AmyQ secretion efficiency of 7.37.
Next, MKKWMAGLFLAAAVLLCLMVPQQQQGASS: 6.69; MPYLKRVLLLLVTGLFMSLFAVTATASARRR: 7.69.
As to MTMSSGMSSILAVSVLLLLSRLPVQASLTSE, the AmyQ secretion efficiency is 4.1.
On to MRRKKKKVVSALSISALALSVSGVASAHEI, for which the AmyQ secretion efficiency amounted to 3.9.
With MKVPKTMLLSTAAGLLLSLDEDSVSAHYV the figure was 6.39; with MIAYFKCLLLVTIMFLGVLFGMQQANHG, 6.01.
With MKVLLSALLLLLFAFEPSFSGKKL the figure was 8.07.
With MKRIRIPMTLALGAALTIAPLSFASAASN the figure was 1.02; with MYKKFVPFAVFLFLFFVSFRKMRNPHALDY, 6.42.
In the case of MKRIRIPMTLALGAALTIAPLSFQSAEEN, the AmyQ secretion efficiency was determined as 6.97.
MKKRLIAPMLLSAASLAFFAMSGSAQLAAY: the AmyQ secretion efficiency was determined as 6.99.
Next, MKKKQVSHAIIISVMLSFVIAVFHTIHASERKR: 7.08; MKSKWMSGLLLVAVGFSFTQVMGGFFAVHAGET: 7.03.
With MLCKRKRLFSAIASFPVSAQAKDQ, the AmyQ secretion efficiency is 7.61.
With MKLSVKIAGVLTVAAAAMTAKMYATQKGN the figure was 7.51; with MKRLLSTLLIGIMLLFFAGVAFAKQD, 3.63; with MRKKCSKCKWSTTSLLSCLSGKSAYAATS, 7.94.
With MFMMSTNNFKRFIAAFLVLALMISLVPADVLAKST the figure was 2.59; with MGMKKKYTQGSRYRALGLALVGGGTWAAFN, 7.3.
Next, MQLGKKLSVAVAASFMSLSISLPGVQAAEG: 2.25; MKKKIVAGLAVSAVVGSSMAAEAKTI: 5.65.
MLCVMMLLFSAIASFPVSNQAKDQ: the AmyQ secretion efficiency came out at 5.37.
Next, MKKRLIAPKLLSAASLAFFAMSGSAQAAAY: 3.27.
The sequence MTKKRWKTPYVCVLLISGWLAPAASASAQTT registered an AmyQ secretion efficiency of 1.44.
Sequence MKWMCSICCAAVLLAGGAAQAAAD displayed an AmyQ secretion efficiency of 4.17.
Sequence MKKWMAGLFLAAAVLLCLMVPQQCQGASS registered an AmyQ secretion efficiency of 2.09.
The sequence MKIRKILLSSALSFGMLISAVPALAAEE came in with an AmyQ secretion efficiency of 2.95.
In turn, MLKKIALTLCPAIVGSLLFFTVILITAPASAHVS displayed an AmyQ secretion efficiency of 3.87.
Regarding MKLAKRVSALTPSTTLAIKKKKRAKAKEL, the AmyQ secretion efficiency amounted to 7.08.
Next, MKKRLIAPMSGYGASLAFFAMSGSAQAAAY: 7.43.
With MMTKSKLLLSCLALSTVFVATTIANAPTH the figure was 5.2; with MRNLTKTSLLLAGLCTAAQMVFVTHISAEES, 3.9; with MKNMSCKLVVSVTLFFSFLTIGPLAHSQNS, 2.01.
MKKKRKKFVAVAALSTTAFGAHASAKEI gave an AmyQ secretion efficiency of 6.1.
With MLKKKWMVGLLAGCLAAGGFSYNAFLTEN the figure was 6.4.
Next, MLKKKWMVGLLAGCLAAGGFSYNAFYTEN: 6.38; MIKLVLCVSILAVILSGVALTQLS: 7.36.
With MKKRKRRFLLVSFVLFFALSTGITGVQAAPA, the AmyQ secretion efficiency came to 2.95.
The sequence MKKRLIAPMLLSAASLAFFAMSGSAQAEED showed an AmyQ secretion efficiency of 2.35.
The sequence MNKPTKGFSTLALAAGSTAAAAGGAGTIHAQQP came in with an AmyQ secretion efficiency of 8.05.
Next, MKVPKTMLLSTAAGLLLSLTATSESAHYV: 6.28.
With MKRFLIGAGVAAVILSGWFIADHQTHKQEM the figure was 4.69.
MNSCSQLIVCSLAAILLLIPSVSFAADS had an AmyQ secretion efficiency of 4.9.
MKSKWMSGLLLVAVGFSFTQVMVHGGET: the AmyQ secretion efficiency stood at 7.46.
With MTKRYGQTKTYKGTTTTAVLAAVFYLTDEDQAAAV, the AmyQ secretion efficiency worked out at 6.8.
With MRSYIKVLTMCFLGLILFVPTALLDNS the figure was 5.28.
With MRKKRVITCVMAASLTLGSLLAAAIATAKED the figure was 3.82; with MRPKRPRKLILSAVLFLSCFFGARQTEASASKR, 4.56.
For the sequence MRKKTKNRLISSVRKTVVISSLLFPGAAGASSK, the AmyQ secretion efficiency stood at 4.05.
With MKVLLSALLLLLFAFEPSASAKKL the figure was 1.92.
With MKKRLIAPMLLSAASLAFFAMSGSFQAAAY the figure was 7.38; with MFKKLLLATSALTFSLSLVLEEDDHAKAQEV, 3.32.
MRSKKLWISLLFALTLIFTMAFSNMSAQHAGK displayed an AmyQ secretion efficiency of 6.69.
The sequence MNKLKRLSMLTVMIASVFIFSSSALAAQY displayed an AmyQ secretion efficiency of 2.06.
For MKKRLIAPMLLSAASLAFFATFMSGSAQAAAY, the AmyQ secretion efficiency amounted to 3.39.
Next, MKLAKRNFMISMVSALTPSTTLAITAKAKEL: 7.41; MKQIMIFLTSFMLLAMTGQTALAADE: 3.7; MKKRLIAPMLLSAASLAFFAMSGSAQNAAY: 8.43.
Sequence MTTKYSKQSKQLLCFMPAAKIEHTQASLL gave an AmyQ secretion efficiency of 7.85.
Sequence MNFKKTVVSALSISALALSVSGVVSAHEI gave an AmyQ secretion efficiency of 2.69.
For MRPVFPLILSAVLFLSCFFGARQTEWSASKR, the AmyQ secretion efficiency was determined as 7.27.
With MTKKAWFLPLVCVLLISGWLAPAASASDQTT the figure was 2.72; with MILANSVSALTPSTTLAITAKAKEL, 8.58.
On to MKRKKMSGLLLVAVGFSFTQVMVHAGET, for which the AmyQ secretion efficiency worked out at 6.25.
Next, MPIKKKVMMCLAVTLVFGSMSFPTLTNATSGGFKE: 2.8; MTMLRKIIGWILLLCIIPLFAFTVIASLKEV: 3.47.
MRPVFPLILSAVLFLSCFFGARQTEASESKR had an AmyQ secretion efficiency of 2.54.
Next, MNKPTKLFSTLALAAGMTAAAAGGAGTCHAQQP: 1.79; MRSYIKTFNVLTMCFLGLILFVPTALADNS: 2.59; MTKKAWFLPLVCVLLISGWLAPAASASFQTT: 2.38.
Turning to MKRKRFLIGAGVAAVILSGWFIADHQTHSQEM, the AmyQ secretion efficiency is 5.04.
Next, MFNRLFRVCFLAALIMAFTLPNSQYAQKP: 7.49; MLKKIALTLCPAIVGSLLFFTAPHSAHVS: 5.59; MKWYCSICCAAVLLAGGAAQAEAV: 2.63.
In turn, MKKGIIRFLLVSFVLFFALSTGSTGVQAAPA yielded an AmyQ secretion efficiency of 1.88.
In turn, MRMLWRSLALCGLALTLAPCFVVTPASAQAAEP gave an AmyQ secretion efficiency of 2.23.
With MKKAFLVFLSVVLVTTVFLVKQQESVAQAADD the figure was 4.45; with MKSCKQLRRCKRRRILLLIPSVSFAADS, 7.57; with MFNRLFRVCFLAALIMAFTLPNSWYAQKP, 7.03.
Regarding MKKIVSILFMFGLVMGFSQFQPSTVFAADK, the AmyQ secretion efficiency was 3.41 and 2.54.
For the sequence MTLSVIIAGVLTVAAAAMTAKMYATAKGN, the AmyQ secretion efficiency came out at 6.67.
With MKKRLIGFLVLVPALIEDGITLIEANKK the figure was 5.91; with MSKLIMALVILGALGTSYISADSS, 7.07.
With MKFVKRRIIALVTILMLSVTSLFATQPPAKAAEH, the AmyQ secretion efficiency turned out to be 2.78.
Consider MRKTIFAFLTGLMMFGTITAASASPR, for which the AmyQ secretion efficiency came to 4.47.
With MMTAIIIAIIAAVIVIAALITFNVRNASPG the figure was 6.42.
With MKRTWNVCLTALLSVLLVAGSVPFHVEAKKP, the AmyQ secretion efficiency turned out to be 2.
Take MFNRLFRRCYTSTLIMAFTLPNSVYAQKP: the AmyQ secretion efficiency is 5.72.
With MKSLPYTIALLFCGLIIVSMAAKGHST [wt_52] the figure was 6.6; with MKLSVKIAGVLTVAAAAMTAKMYQTAKGN, 7.71.
As to MRKKLKWLSFLLGFIILLFLFKYQGSNNDS, the AmyQ secretion efficiency was determined as 5.93.
